T1: monomeric CD19 extracellular domain (UniProt P15391 20-291, limits assumed)
T1 construct: extracellular domain; also called monomeric CD19 protein
T1 sequence (looked up): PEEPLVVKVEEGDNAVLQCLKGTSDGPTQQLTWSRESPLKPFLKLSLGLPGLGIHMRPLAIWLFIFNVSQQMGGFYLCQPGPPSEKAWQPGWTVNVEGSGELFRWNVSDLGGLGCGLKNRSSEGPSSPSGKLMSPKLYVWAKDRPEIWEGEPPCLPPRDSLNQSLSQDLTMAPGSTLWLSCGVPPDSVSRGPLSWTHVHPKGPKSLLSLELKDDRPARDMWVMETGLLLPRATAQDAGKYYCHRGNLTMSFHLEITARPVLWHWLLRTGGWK

T2: dimeric CD19 extracellular domain fused with human IgG1 Fc (human, UniProt P15391 20-291, limits assumed)
T2 construct: extracellular domain; also called dimeric CD19 protein; not shown: human IgG1 Fc
T2 sequence (looked up): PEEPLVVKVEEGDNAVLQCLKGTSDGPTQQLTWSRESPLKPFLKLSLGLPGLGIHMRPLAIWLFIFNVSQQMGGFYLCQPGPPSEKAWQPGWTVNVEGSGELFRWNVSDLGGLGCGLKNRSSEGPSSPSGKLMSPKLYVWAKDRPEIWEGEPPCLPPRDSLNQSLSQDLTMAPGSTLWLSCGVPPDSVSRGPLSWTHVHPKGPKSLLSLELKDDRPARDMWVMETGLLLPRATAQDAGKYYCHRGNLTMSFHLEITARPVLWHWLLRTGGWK

B1: CD19 binding domain having the sequence of SEQ ID NO: 18 (scFv)
scFv: QVQLQESGPGLVKPSQTLSLTCTVSGGSISTSGMGVGWIRQHPGKGLEWIGHIWWDDDKRYNPALKSRVTISVDTSKNQFSLKLSSVTAADTAVYYCARMELWSYYFDYWGQGTLVTVSSGGGGSGGGGSGGGGSEIVLTQSPATLSLSPGERATLSCSASSSVSYMHWYQQKPGQAPRLLIYDTSKLASGIPARFSGSGSGTDFTLTISSLEPEDFAVYYCFQGSVYPFTFGQGTKLEIKR
notes: also called SG mAb scFv
B2: CD19 binding domain having the sequence of SEQ ID NO: 9 (scFv)
scFv: QVQLVQSGAEVKKPGASVKVSCKASGYTFTDYIMHWVRQAPGQGLEWMGYINPYNDGSKYTEKFQGRVTMTSDTSISTAYMELSRLRSDDTAVYYCARGTYYYGPQLFDYWGQGTTVTVSSGGGGSGGGGSGGGGSDIVMTQTPLSLSVTPGQPASISCKSSQSLETSTGTTYLNWYLQKPGQSPQLLIYRVSKRFSGVPDRFSGSGSGTDFTLKISRVEAEDVGVYYCLQLLEDPYTFGQGTKLEIK
notes: also called Roche mAb scFv

Key:
[1] = molecular target: T1, monomeric CD19 extracellular domain; experiment: SPR as printed, ForteBio instrument (per Estep et al. 2013); monomeric CD19 extracellular domain; monomeric CD19 protein
Protocol: (§1) As noted above, the constructs produced contained an anti-CD19 scFv having the amino acid sequence set forth in SEQ ID NO: 9 or 18. The binding affinity of the two CD19 binding domains to CD19 were measured by SPR using a monomeric CD19 extracellular domain and a dimeric CD19 extracellular domain fused with human IgG1 Fc. Binding kinetic parameters were measured using an instrument (available under the tradename ForteBio™ from Pall Corporation®) generally as previously described (see, Estep et al. (2013) MAbs, 5 (2): 270-78).

[2] = molecular target: T2, dimeric CD19 extracellular domain fused …; experiment: SPR as printed, ForteBio instrument (per Estep et al. 2013); dimeric CD19 extracellular domain-human IgG1 Fc; dimeric CD19 protein (IgG1 Fc fusion)
Protocol: as §1

| Binder | Kd [1] [nM] | Kd [2] [nM] |
| --- | --- | --- |
| B1 | 11 | 15 |
| B2 | 7 | 5 |
